Measurements: paper PMC4048323 (Nature medicine, 2014)

Biological target: T1, mouse Ebi3 subunit of recombinant IL-35, V5-His-tagged (mouse, UniProt O35228 19-228)
T1 sequence: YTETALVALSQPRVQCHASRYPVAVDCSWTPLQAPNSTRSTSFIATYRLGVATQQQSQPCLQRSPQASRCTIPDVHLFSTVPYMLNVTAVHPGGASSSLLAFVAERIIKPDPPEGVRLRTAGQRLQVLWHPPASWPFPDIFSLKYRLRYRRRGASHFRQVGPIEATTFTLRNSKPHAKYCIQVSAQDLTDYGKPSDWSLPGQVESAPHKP
Experiment: co-IP

B1: mouse IL-12p35 (p35) subunit of recombinant IL-35, Flag-tagged (natural protein)
chain: RVIPVSGPARCLSQSRNLLKTTDDMVKTAREKLKHYSCTAEDIDHEDITRDQTSTLKTCLPLELHKNESCLATRETSSTTRGSCLPPQKTSLMMTLCLGSIYEDLKMYQTEFQAINAALQNHNHQQIILDKGMLVAIDELMQSLNHNGETLRQKPPVGEADPYRVKMKLCILLHAFSTRVVTINRVMGYLSSA
- binding result: binds
